The text below walks through data of a protein production outcome set (Wang et al. 2014).

This data set is described as follows: label from the status in PepcDB records.
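Further: failed if final PepcDB status was selected cloned or expressed and not failed if soluble or beyond.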

In the case of “MINIVIVSHSKHLAEGIEALANQMLNPTHCRLAIAAGVDDEAHPIGTDAVKIMTAIESLAEADAIIVMMDLGSAILSTETAIELLDTELAQKVTLCSAPLVEGTLAAVVAASSGASLEKVLEEANHALTPKKMQLGENMGGSEPNDVTPSIQMHGKEAHWVVKNPHGLHVRPAATLVELLSKFRADYQLIKGDRRINPLSLNQLSLIQIRQGDEITLIASGEQENEAIDAFLALAKQGFGEALPDELTEQSLTGTLVPASPIKGPAFIWHELELAPIENLSAPLDSTIQIEQFNQAIKDTLNDLKHYAEKANHTLGEQIGAIFNGHIMMLDDEELLTNVIDRIKTDNVSAQQSWTNEMKERIQLYRTLSDPYLRARELDLRDLRNQVLYHLQQKTPPKFTPSQPSILVAKELFPSTLIQFDATQLLAITLAEGDSCSHSAIIATQMGLPMLVHLGDGLLKIKEAQELTLDLKSSELIIGSIN”, the protein production result was “failed”.

For the sequence “MINKDTQLCMSLSGRPSNFGTTFHNYLYDKLGLNFIYKAFTTQDIEHAIKGVRALGIRGCAVSMPFKETCMPFLDEIHPSAQAIESVNTIVNDNGFLRAYNTDYIAIVKLIEKYHLNKNAKVIVHGSGGMAKAVVAAFKNSGFEKLKIYARNVKTGQYLAALYGYAYINSLENQQADILVNVTSIGMKGGKEEMDLAFPKAFIDNASVAFDVVAMPVETPFIRYAQARGKQTISGAAVIVLQAVEQFELYTHQRPSDELIAEAAAFARTKF”, the protein production result was “not failed”.

Take “MINMCYNFENVKKAYEDQLKNYIKNSLIPNLSSHANNEVVKISMKKLANLGFGYLVDSTLSSITGYYKVRDWIEELLKEELQKSGENKCCNIVLCDYPEEFEISMREIPYYVNKVVKFNGVIISASYPCVLSKKHLYICPKCGRIKEVYFSELFWDDKVFCEFCGGKMEFANVMDYENFQELVVQDLSDESEYYGIEKNPIVWYCGAKPYYFGHVKITGIVREVPRSSKSRIYELIVQAINVEKLGVEKSLINLTEEDVKNIKKVAKRGDIIDILADILIPPLLCDDAIVRKAILIQQIAPYLEDIGKINILLVTEVGIDKTAILKRIGNIPGNNFINIAALKEEELATPYDKRSNILGKFYTVCGGVIPRTLGVLCIDDFNENNKLSTKLSEAFERNVLTTNKGSFYCVPAECSFLCACYPKTKFRKFDQKKSIIKQIGISSILLKNFDLIFPIRDIPDKDRDEEVAKYIFLKYINSDNEEIEGYDYVFVDVGGEKIKIDFEFLKKYVVYSRQITPKITDEVIEKISNWYDEMRKNHYITAKQLNTVIKLSIAVARAKLKECVDEDDVKEAIDIIMHYLKQVVYNPKKGIIDVILLYKNKT”: the protein production entry is “failed”.

“MINYKKKIAALMLLATCLSGCSYDLKDLQHLKSKSSFDTVGIKILCEHKKYSEAMKQIDDYLKKHPDDKVALSEKGYVLVSQDKNEDGLLVLLKVNDKYPNYDVTLNNISWAYNNLKMYKLANKYADLALKQTPNSSEELSNKGTALFGLKNYKAAEKYYDKALEKKSTDKVAIWGKALSLYKEKSYSKSLTYFKKYVIVDSSDIQASYYMEKCYIALNDVDGAIKEFKSDIIADPKNKGNYFALGDMYRKKTDYSSALSCYDTLSEIDPEDPEIYFQKAICLVKSGDKDGACENLKLTLSYDSEYVSDIEEEPAFDALKDYDKFKEILNSK”: the protein production result is on record as “failed”.

For “MIPIVDSRIGAYLDGLLPEADPVVAAMEQIARERNIPIVDRQTGRLLYLLARIKQPQLVVVPGDGLGCASWWFARAISISSRVVMIDPDRDNVEHARRMLHDNGLIDRVELQVGDPLGIAAGQRDIDILFMDCDVFNGADVLERMNRCLAKNALLIAVNALRRGSVAESHEDPETAALREFNHHLSRRRDFFTTIVPVGNGVLLGYRLS”, the protein production entry is reported as “not failed”.

Regarding “MIPPYREHPLREVLINELHARPSETIEAPVRLSHLAVLTGEITDPSLDHLGLLCARMGETVPAKGATRFNANLGGLGLQFERHTEFCTYTFQRRGRTGDLPFDQPALDMVPPDWLATLPGQVLSAVHLVVEPKDTPEYSIEELSIRHFAGNPVVGSAVGGGAAFAYSDLRLHDDRCLRMLIRDVDLNPRHAGRLVQRLLELNTYRALALLALPMARESSPGLRRIDMVLAHVAARMADPNGVDSDAELLSELSNLTAEVESLAAANSYRIAATRAYHALVQRRLEELREVRLDGVVTFGAFMDRRLTPAMATVDSVSERIESLSERGARVASLLRARVEVDLQAQNKRLLESMNRRARIQLRLQEAVEGLSVVAISYYLVGLVGYMAKGVSGAGVEVKESVVTAIAVPVIVASVWLVLRRAKRAMLNRAD”, the protein production entry is on record as “failed”.

Turning to “MIQKQHESKLEVGQTFPVTIKRLGINGEGVGYFKRQVVFIPGALPGEEVVAETTKIQRGFAEAKVKKVRKASPHRVKAPCPVYEECGGCQLQHLDYKEQLNQKRDIVVQAFEKYMKNSMEEKIRPTLGMENPWHYRNKSQLQVGRKDEKVITGLYKQNSHQLIDIAHCMIQHKATNEATKVVRRILEKLNVSIYNEKKQKGLVRTIVTRTAVQTGEVQVTLITTKEELPNKEQFIAEVQKQMPAVKSIMQNVNWRKTSVIFGDKTFKLAGKEVIQETLGDLSFELSARAFFQLNPEQTVVLYNEAKKAAALTGNEKIVDAYCGVGTIGLWLANDAAEVRGMDVIPEAIADARKNAKRHGFTNTKYEAGKAEQWLPKWVKEGWRPDVIVVDPPRTGCDDKLLETILKVKPKQVVYVSCNPSSLARDVQALMKSYEVEYVQPVDMFPHTAHVENVVKLTLK”, the protein production result is reported as “failed”.

In the case of “MIQQRANFDWMLKELADGVPGVHQIVVLSADGLRIARYGGDPDAADRVAAACAGLQSLAGAVATEIPHSDGKMRMVIIEMDGAYFYMMAAGPNAYLAVLSDVTAEAGLMSNRMRDLVVRIGAHLTSPPRRNGQTV”, the protein production entry is recorded as “failed”.

In the case of “MIRKLNKKDQEILKTLGSIWLNSNIATHNFINEEYWVNNYDNVIESFKTAEIIVYEKNTEIIGFCGLIDNYIAGMFIKKSSRNQ”, the protein production result is on record as “failed”.

For the sequence “MIRLATKNDLLSITQLVKEAKQIMEEFNNNQWDDEYPAKEHFEEDIENKTLYVLDVDHTIYGFIVIDQNQSEWYDDIDWPVNRNGAYVIHRLAGSKQYKGAATELFQFAIDLANEHDIHVILTDTFALNKPAQGLFEKFGFTKVDEIEIDYHPFDRGAPFYAYYKNI”, the protein production result is “failed”.

On to “MIRLGLTSFSEHDYLTGKKRSTLYEYASHLPLVEMDTAYYGIPPKERVAEWVKAVPENFRFVMKVYSGISCQGEWQTYYASEEEMITAFLESMAPLIESKKLFAFLVQFSGTFGCTKENVAYLQKIRHWFKDLPIAIELRNNSWYQPNFVKQMLQFMKENQFSLVIVDEPQIPTNPVPFYPYVTNPNLVLFRFHGRNAAGWLANDAEWRKKRTLYHYNTQEIADLSEAVLKMSQEAKEVGVIFNNNSGGDAAENALQMQKVLNLSYDDLNPKQLDLF”, for which the protein production result is recorded as “not failed”.

For “MIRLPRAGTVLAVRGTAARSRRRLSTMARMPDTNTTDLWERRTQGPLLALAVLFAVAYALPVVMPDAPEQLLFACHVANWVVWAAFAIDYAVRLWLSEDRLRFVRSHPLALLAVLLPLLRPLRLLKLVSMLLLAGQRARMASQVRVTTYVAGSCLGLLVFGALAVLEVERGRPGASIQTLGDALWWAFTTMTTVGYGDMAPTTGLGRLLAIGLMLSGIALLGVVTANIAAWFISRFERDDAEERRQTAAIEALTEEVRALRAQVATLRAPQGAPSELNVLPAPTREHD”, the protein production entry is “failed”.

As for “MIRLTIEETNLLSIYNEGGKRGLMENINAALPFMDEDMRELAKRTLAKIAPLTENEYAELAIFAADEVLEHHHHHH”, the protein production entry is listed as “not failed”.

For the sequence “MIRNASIINVFRVSLALIVIVASASSLSAFWLLEKSEQDAELINVAGSHRMKAYKFALQLSSGKKVQASETAQEIDTLWEQPLLHRHFVKAGGSIQQLAKDARTEWQRVHSEIAEQDFARFSQQQSNAIDNYVNQLDTLVGQLQEHSERRMETVRSSLALASFFIVAIFFFLLTVLKRKINQPLRHLLAVSKRLGQGDFTAKSKIDNEDEIGQLSRTMNKMSETVSYFYGGLERRVEQQTQELSRKNKVLSFLYDTARSIIVHSYDYNNYQQVIEKLYEIGEVNDIELCLLTEEGNRPFLQLQPRPSSHEPCEAGDCATCLKAGPGASVIEDKLVYRFVLKREDQNYGVLIVRCEQGQPLATWQQQLMSSTADQLALSQSLKSEEEQVRRLALMHERTVIARELHDSLAQALSYLKIQVTRLHKGIEKNDRATIDDVSNELREGLNSAYRQLRELLTTFRLKVDGSGLYSALQTTVKQLTEQSNMVVHLDYRLNNIPLVPHEEIHLLQIIREASQNAVNHSQGSEVHISLSQPSGQDVELKITDDGIGLPENAEKVNHYGLAIMQERSRNLGGEIKISRLESGGTEVCFTFTPDYLLQ”, the protein production result is reported as “failed”.

Consider “MIRNLYNKIKNCKLKIAAIILLIFLIVTGYIYYSRYFYVLRSPQRVKEFILSYGKFGFFAFFVMQMLQVVAFFIPGEIIQIAGGYIFGTFWGTVISLLGITAGSAVAFYLSNKLGRPFVKKISGKQNISFFEKLIKNGEIKYVITLIYLVPGLPKDILAYVCGITDLSLKDFIIYSTIGRFPGIFISAYFGNTITHGNIKMMVIIAVISVVLFGLGVFKGKYLLTKISSIRSKKQK”, for which the protein production result is given as “failed”.

As for “MIRNVLKLLALLADEIVIVALVIIFLRRVSARLAVIVGGALILFNLFLVKLLWGTLKKKAEVGAEALIGEKAVVVEDLNPVGLVKVKNELWTAECISGTARRGEKVRIVQVKGAKLLVEKDDNAGKFL”, the protein production result is on record as “failed”.

“MIRVTFLPDQVSVEATAGEAWLSVAARAGVEIPTGCRMGSCGACTLELEDGQEIRACISTIAGDRDPAPLEDCPHITAYVFRDPTW”: the protein production entry is reported as “failed”.

“MISASWKSAGKTTVSLGLLRLLAENGVPVVSFKKGPDYIDPMWHRVASSGECYNLDTWMMGEAACRDTFIRNCARRPGSIALIEGNHGLHDGMDMAGADSSAGLAALLDAPVLLVIDSRRMNRGVAAQVLGLQAMPPKVRIAGVILNHVTSSRQESKQRAAIETFCNVPVLGAIPADSSLLLPERHLGLVTVGEASDAEAFIRVAAQQVERHCDFAAIRKLFEEASPLSHSEPREVFSPKKEATVKIGVFRDAAFCFYYPDNLDALRDAGAELVFIDTFKTTALPEIDGLYLGGGFPESFFAELSANTSLLRDMRGRIEAGIPAWAECGGLIYLCRSATWEGRQWPLASVLPIDIAYQRKPAGCGYLELESRAGSGWFPVGERVRAHEFHYSKPVAGNVDLACQFDVARGFGLTGREDGLLYRNLFASYAHFHAAANPGWAERFVGLALKFKEQGRLERD”: the protein production result was “failed”.

Regarding “MISHFGAPLIRYDPALQGHAVPQLDMKTFTRRQHRPRPLILAVGLGLGIALTAPLAAAQNAPSSQPWRDTALTADQRADRLLAQMTEDEKFQMLRSYLGLGTDKIPKPAGALGSAGYVPGIARLGIPAQQLADAGVGVTNPGGIRKGDYATAMPSVLSTASSWNRQLAYAGGKTMGRESWQQGFNVLLAGSVNLQRDPRNGRNFEYAGEDPLLAGTMVGESIRGVQSEHVLSTMKHFALNDMETRRNFHSAQIGEQAMHESDLLAFEIALKIGDPASVMCSYNKINGVYGCEHDYLLNQVLKQEWKYPGYVMSDWGGVHSGSKAALAGLDQESAGEVFDVAVFFDAPLRMAVSAGVVPRARFDDMVKRILRSLFAHGAFDYPTQRQPIDGKAGLLAAQHVAEAGSVLLRNEQAMLPVSQDVRRIAVIGGYADKGVMSGGGSSRVDVTINGGNAVPGITPTTWPGPVIIHPSSPLQALRAALPNAQIDYVDGKDRAAAARAAKAADVAIVFATQWATESVDLPDMRLPDNQDALIEAVAKANPKTTVVLETNGPVRMPWAERVPAVLQAWYPGIGGGEAIANLLTGTVNPSGHLPVTWPVDESQLPRPSIPGLGFKPAKPGEDTIDYAIEGANVGYKWFAAHKLTPRYPFGHGLSYTQFRMDGLRVEANGSQLTASFEVENIGQREGAAVPQLYVTLPDGHATPLRLIGWQKLTLKPGEKRSVQVVAEPKTLADFDAQARRWTIAAGTYRVQLARSASEPVQSAAVTLQAAQLP”, the protein production entry is listed as “failed”.
